Data reported in publication PMC6908968 (Cell, 2019).

T1: thermolysin-cleaved EBOV GP on Jurkat-GP cells (cleaved GP) (Zaire ebolavirus, Makona (GP1 core …, strain))
T1 chain 1: not shown
T1 chain 2: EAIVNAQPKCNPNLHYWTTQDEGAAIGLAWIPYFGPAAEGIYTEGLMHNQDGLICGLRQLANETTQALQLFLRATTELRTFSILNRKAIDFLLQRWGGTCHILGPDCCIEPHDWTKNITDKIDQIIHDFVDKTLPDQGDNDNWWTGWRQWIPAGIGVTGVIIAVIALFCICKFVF

B1: 5.6.c2875 (antibody, V domains shown)
VH: EVQLVESGGGVVQPGGSLRLSCAASGFTLRNFDMHWVRQVTGKGLEWVSGIGTAGDTYYPDSVKGRFTISRENAKNSLYLQMNSLRAEDTAVYYCARARWLQFDNWGQGALVTVSS
VL: EIVLTQSPGTLSLSPGERATLSCKASQRVTSNFLAWYQQTPGQAPRLLIYSASSRATGIPDRFSGSGSGTDFTLTISRLEPEDFAVYYCQQYRSSRYTFGQGTKLEIK
B2: 5.6.c2526 (antibody, V domains shown)
VH: QVQLVESGGGVVQPGGSLRLACAASGFTFSNSGLHWIRQAPGKGLEWMTVISHDGNNKYYADSVKGRFTISRDNSENMLYLQMNSLRPEDTAVYYCARDRIRYSDWGVYYYYNGMDVWGQGTTVTVSS
VL: QSVLTQPPSVSAAPGQKVTISCSGSISNIGNHYVSWYKQLPGTAPKVLIYDNNKRPSGIPDRFSGSKSGTSATLGLTGLQTGDEADYFCGTWDSSLSVWVFGGGTKLTVL
B3: 5.6.c2633 (antibody, V domains shown)
VH: EVQLVQSGGGLVQPGGSLTLSCAASGFTFTDHWIHWVRQAPGKGLEWVANVKPDGSEKYYVDSVKGRFTISRDNAKKSLSLQMNSLRADDTAVYYCARSQLEGLGDLFYYNFGLDVWGQGTTVTVSS
VL: EIVMTQSPATLSVSPGERATLSCRASQSVNSNLAWYQQKPGQAPRLLIYGASTRATGIPARFSGRGSGTDFTLTISSLQSEDFALYYCQQYNTWPPLTFGGGTKVEIN
B4: 15.0.c775 (antibody, V domains shown)
VH: EEQLLESGGGLVQPGGSLRLSCAASGFTFSGYDMSWVRQAPGKGLEWVSLLSWSGDAKYYADSVKGRFTISRDNSKNTLYLQMNSLRAEDTAVYYCAGDSSGYNNERLYYTYYMDVWGKGTTVTVSS
VL: DIQMTQSPSSVSASVGDRVTITCRANQAISSWLAWYQQKPGKAPKLLISAASSLQSGVPPRFSGSGSGTDFTLTISSLQPEDFATYYCQQANSFPLTFGGGTKVEIK
B5: 15.0.c888 (antibody, V domains shown)
VH: QVQLVESGGGVVQPGRSLRLSCAASGFTFSSYGMHWVRQAPGKGLEWVAVISYDGSNEYHADSVKGRFTISRDNSKNTLYLQMNSLRPEDTAVYYCAKGARSSSSLDLYYYYYYMDVWGKGTTVTVSS
VL: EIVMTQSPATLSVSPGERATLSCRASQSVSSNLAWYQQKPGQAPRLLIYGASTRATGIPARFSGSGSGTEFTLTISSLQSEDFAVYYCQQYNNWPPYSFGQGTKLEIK
B6: 5.6.c2460 (antibody, V domains shown)
VH: QLQLQESGPGLVKPSETLSLSCSVSGGSISSSDDHWGWIRQSPGKGLEWIGSVSYSGSVYYNPSLKSRVTISVDTSKTQFSLRLRSVTAADTAVYNCARHRSDQMLFYWFDPWGQGTLVTVSS
VL: ETLMTQSPATLSVTPGESATLSCRASQTISSSLAWFQQKPGQAPRLLIHGASTRATGIPARFSGSGSGTEFTFTISSLQSEDFAVYFCQQYHNWPPTFGQGTKVEIK
B7: 5.6.c2455 (antibody, V domains shown)
VH: QVQLVESGGGVVQPGRSLRLSCAASGFTFSSYAIHWVRQAPGKGLEWVAVISDDGNHKYYADSVKGRFTISRDNSKNTLFLQMNSLRPEDTAVYYCAKNRLVFGVIWFYDMDVWGQGTTVTVSS
VL: QSVLTQPPSVSAAPGQKVTISCSGSSSNIGNNYVSWYQQLPGSAPKLLIYDNNKRPSGIPDRFSGSKSGTSATLDITGLQTGDEADYYCGTWDTSLRGVFGGGTKLTVL
B8: 5.6.c2609 (antibody, V domains shown)
VH: QVQLVESGGGVVQPGRSLRLSCAASGIAFSNYAMHWVRQAPGKGLEWVALISSDARDQYYADSVKGRFTISRDNSKSTLYLEMNSLTSEDTAIYYCASDTSSHYSSLLYNWFDSWGQGSLVTVSS
VL: DIQMTQSPSSLSASVGDRVTITCRAIQSISTFLNWYQHKPGKAPKVLIYGASNLQSGVPSRFSGSGSGTDFTLTISSLQPEDFATYYCQQSYNTPFTFGPGTKVDIK
B9: 5.6.c2485 (antibody, V domains shown)
VH: QVTLKESGPVLVKPTETLTLTCTVSGFSLSTARMGVGWIRQPPGKALEWLAHIFSDDEKSYSTSLKSRLTISKDTSKSQVVLTMTNMDPVDTATYYCARIQSSEWIYYYYGMDVWGQGTTVTVSS
VL: DIQMTQSPSSVSASIGDTVTITCRASQDLSYWLAWYQQKPGKAPKLLIYAASSLQSGVPSRFSGSGSGTDFTLTISSLQPEDFATYYCQQAHSFPITFGQGTRLEIK
B10: 5.6.c3242 (antibody, V domains shown)
VH: QVQLQESGPGLVKPSATLSLTCTVSGGSISSDHWSWIRQPPGKGLEWIGHVIYSGSTNYIPSLKSRVTISIDTSKNQFSLKLRSVTAADTAVYYCARGGGWYDNWFDPWGQGTLVTVSS
VL: QSALTQPASVSGSPGQSIIISCTGTSNDVGSYNLVSWYQQHPGKAPKLMIYEGNKRPSGVSNRFSGSKSGNAASLKISGLQSEDEAEYYCCSYAGSGTWVFGGGTKLTVL
B11: 5.6.c3955 (antibody, V domains shown)
VH: EVQLVESGGGLVQPGGSLRLSCAASGFTFSTYSMNWLRQAPGKGLEWISFISIRSTTTYYADSVKGRFTISRDDAKNSLYLQMNSLRDEDTAVYYCARVYMRTFYFDNWGQGTLVTVSS
VL: QSALTQPASVSGSPGQSITISCTGTSSDVGDYNYVSWYQQHPGKAPKLLIFDVSNRPSGVSNRFSGSKSGNTASLTISGLQAEDEADYYCSSYASSRTSWVFGGGTKLTVL
B12: 5.6.c2627 (antibody, V domains shown)
VH: QVQLVQSGAEVKKPGSSVKVSCKASGGTFSTYGFIWVRQAPGQGLDWMGGIIPIFDKTNYGQRFQGRVTITADKSTSTVHMELSSLRSEDTAVYYCARCRSGFKDPSGYFYYAMDVWGQGTTVTVSS
VL: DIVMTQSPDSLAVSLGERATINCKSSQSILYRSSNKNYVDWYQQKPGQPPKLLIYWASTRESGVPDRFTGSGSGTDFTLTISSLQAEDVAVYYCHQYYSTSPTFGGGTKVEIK
B13: 5.6.c3169 (antibody, V domains shown)
VH: QVQLVQSGTEVKKPGASVRVSCKSSGYTFTNYGINWVRQAPGQGLEWLGWISTYNDNINYAQKFQGRVTMTTDTSTSTAYMELRSLRSDDTAIYYCAKDSSAYWDLLFYGMDVWGQGTTVTVSS
VL: DIQLTQSPSFVSASVGDRVTITCRASQGISSSLAWYQQKPGKAPNLLIYAASALQSGVPSRFSGSGSGTDFTLTISSLQPEDFATYFCQQLNSYPYTFGQGTKLEIK
B14: 5.6.c2617 (antibody, V domains shown)
VH: EVQLVESGGGLVQPGGSLRLSCVASGFTFSSYEMDWVRQAPGKGLEWVSYIGSSGSTIYYADSVKGRFTISRDNAKNSLYLQMNSLRAEDTAVYYCARDTETTGLYYYGMDVWGQGTTVTVSA
VL: DIQMTQSPSSVSASVGDRVTITCRASQGISRWLAWYQQKPGKAPKLLIYGTSSLQSGVPSRFSGSGSGTDFTLTISSLQPEDFATYYCQQANSFPFTFGPGTRVDIK
B15: 5.6.c2569 (antibody, V domains shown)
VH: QVQLQESGPGLVKPSGTLSLTCAVSGGSISSPNWWSWVRQSPEKGLEWIGEVFHSGSTNYNPSLKSRATISVDNSKNQFSLRLTSVTAADTAIYYCARDLGWLVHGYFDPWGQGILVTVSS
VL: EIVLTQSPGTLSLSPGERATLSCRAGQSVSSSYVAWYQQKPGQAPRLLIYDTSSRATGIPDRFSGSGSGTDFTLTISRLEPEDFAVYYCQQYGTSRTWTFGQGTRVEIK
B16: 5.6.c2517 (antibody, V domains shown)
VH: QVQLQQWGAGLLKPSETLSLSCSVYPGSFSGYYWAWIRQPPGKGLEWIGEINHSGSTKYNPSLKSRVTISIDTSKNQLSLKMSSVTAADSAVYYCASLTRSSWFRAFDYWGQGTLVTVSS
VL: QSALTQPASVSGSPGQSITISCTGSSSDIGGYDYVSWYQQHPGKAPKLMIFDVSDRPSGVSNRFSGSKSGNTASLTISGLQPEDEADYYCSSYTSISSSYVFGTGTKVTVL
B17: 5.6.c2481 (antibody, V domains shown)
VH: QLQLQESGPGLVKPSETLSLTCTVSGGSISSSTYYWGWIRQPPGKGLEWIGSIFYRGITYYNPSLKSRVTISVDTSKNQFSLKLSSVTAADTAVYYCARGGVIVLMVYAIVPPDVWGQGTTVTVSS
VL: QSALTQPASVSGSPGQSITISCTGSRSDVGGYNYVSWYQQHPGKAPKLMISDVSNRPSGVSNRFSGSKSGNTASLTISGLQAEDEADYYCSSYTSSSTVVFGGGTKLTVL
B18: 5.6.c2518 (antibody, V domains shown)
VH: EVQLVESGGGVVQPGGSLKLSCAASGFTFDDHAMHWVRQAPGKGPEWVSLISWDGANSYYANSVRGRFTVSRDNSKNSLFLQMNSLRTEDTALYYCARDLHNYAFWSGYPDYWGRGTLVTVSS
VL: DIQLTQFPSSLSASVGDRVVITCRASQSISSSLNWYQQKPGNAPQLLIYTVSSLYTGVPSRFSGSASGTDFTLTISSLRPEDFATYYCQQTHSVPYTFGQGTKLEIK
B19: 15.0.c770 (antibody, V domains shown)
VH: QVHLVESGGGVVQPGRSLRLSCAVSGFTFSSCGMHWVRQAPGKGLEWVAVISYDGSDKYYADSVKGRFTISRDNSNNTLYLQMNSLSIEDTAVYYCAKDYYYGSGSDLYYYYYGMDVWGLGTTVTVSS
VL: EIVLTQSPGTLSLSPGDRATLSCRASQSVSSTYLAWYQQKPGQAPRLLIYGASSRATGIPDRFSGSGSGTDFTLTISRLEPEDFAVYYCQQYVTSPYSFGQGTKLEIK
B20: 9.1.c1426 (antibody, V domains shown)
VH: QVQLQESGPGLVKPSQTLSLTCTVSGGSISSGDYYWSWIRQPPGKGLEWIGYIYYSGSTYYNPSLKSRVTISVDTSKNQFSLKLSSVTAADTAVYYCARGYSSGWYLAYFQHWGQGTLVTVSS
VL: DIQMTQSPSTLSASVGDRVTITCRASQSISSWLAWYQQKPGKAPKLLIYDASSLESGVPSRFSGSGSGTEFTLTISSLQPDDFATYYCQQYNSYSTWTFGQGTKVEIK
B21: 5.6.c2902 (antibody, V domains shown)
VH: QVQLQESGPGLVKPSQTLSLTCTVSGASINSRDSYWSWIRQPPGKGLEWIGYIYYSGSTYSNPSLKSRVTMSVDTSKNQISLQLSSVTAADTAVYYCARVEGNEILFSLWYFDIWGRGTPVSVSS
VL: QSVLTQPPSVSAAPGQKVTISCSGSSSNIGNNYVSWYQQLPGTAPKLLIYDNNKRPSGIPDRFSGSKSGTSATLGITGLQTGDEADYYCGSWDSSLSAGHWVFGGGTKLTVL

Experiments:
[1] = biological target: EBOV GP ectodomain residues 1-636 (GPec) (Zaire ebolavirus, strain  …, UniProt Q05320)
[2] = biological target: T1, thermolysin-cleaved EBOV GP on …

Binder | binding result [1] | binding result [2]
B1 | binds | –
B2 | binds | binds
B3 | binds | binds
B4 | binds | binds
B5 | binds | binds
B6 | binds | binds
B7 | binds | binds
B8 | binds | binds
B9 | binds | binds
B10 | binds | –
B11 | binds | –
B12 | binds | binds
B13 | binds | –
B14 | binds | –
B15 | binds | binds
B16 | binds | binds
B17 | binds | binds
B18 | binds | binds
B19 | binds | binds
B20 | – | binds
B21 | binds | –
